Among the data in a protein production outcome set (Wang et al. 2014) are protein production values, retold here.

This data set in a line: label from the status in PepcDB records.

Take “MSVTLVNNENNERYEFETIESTRGPKAVDFSKLFETTGFFSYDPGYSSTAGCQSKISYVNGKKGELYYRGHRIEDLVAKYKYVDVCKLLLTGELPKNQDESLEFELELRHRSFVHESLLNMFSAFPSNAHPMAKLSSGVSILSTLYSTHQNMHTEEDYQTMARRIVAKIPTLAAICYRNEVGAPIIYPDIARSYVENILFMLRGYPYSRLKHTTQGEVEITPLEVEAFDKILTLHADHSQNASSTTVRNVASTGVHPYAAISAGISALWGHLHGGANEKVLLQLEEIGDVKNVDKYIARVKDKNDNFKLMGFGHRVYKSYDPRAKILKGLKDELHQKGVKMDERLSEIAAKVEEIALKDEYFIERNLYPNVDFYSGTILRALKIPVRFFTPVFVIGRTVGWCAQLLEHVKSPQARITRPRQVYVGD”: the protein production result is “failed”. With “MSVVPVADVLQGRVAVDQEVTVRGWVRTRRDSKAGISFLAVYDGSCFDPVQAVINNSLPNYNEEVLHLTTGCSVVVTGKVVASPGQGQSFEIQATKVEVAGWVEDPDTYPMAAKRHSIEYLREVAHLRPRTNLIGAVARVRHTLAQALHRFFDEQGFFWVSTPLITASDTEGAGEMFRVSTLDLENLPRNDQGRVDFDKDFFGKESFLTVSGQLNGETYACALSKIYTFGPTFRAENSNTSRHLAEFWMLEPEVAFADLEDNARLAEAMLKYVFNAVLEERADDMKFFAERVDKDAIARLERFVSTDFAQVDYTDAVAILERCGKTFENPVFWGVDLSSEHERYLAEEHFKAPVVVKNYPKEIKAFYMRLNEDGKTVAAMDVLAPGIGEIIGGSQREERLDVLDARMAEMGLNKEDYWWYRDLRRYGTVPHSGFGLGFERLIAYVTGVQNVRDVIPFPRTPRNASF” the entry was “failed”. The same measure for “MSVYLVALIGILILGLYILDLRKHKITTREIIMIGLSVAISYVLYMIPLVRYPQGGGITFFSMLPIMLLSLVYGRTVGVTGGLIFGLLKILNGAFIVHPVQFLLDYILSNMALGLAGSFGIDKKYKIFLGSLMAGSISTFVSIVSGVIFFGQYAPPGMNLWIYSIIYNTSSAGVESLLTAIVITIMPIKMLAKRMKPINNI”: “failed”; for “MSWESINSKDLLSIPPSQNLSATRLLTSPDGSRYLLENSSDLCHLDESFSRLAGYGSSPDVGSRSVWASQALLRSGSVISCFLSCQQSLRQYIAKRKIERGRRLYEQNNQTEAVRTWRSALKGTCQREDCFQLLGYLYQAHMDWGKFREAIEFSHQQLGISEELDSPNMRAETYLNLSRAHASLGGLERSLSYARHSLYNECGTKCRSGLVHLTVARVYLEMGGFSRALEGLQGAYKIATAIGDPSLELQVYVALSELFGRLQDNDKSATYASKAYDLSRSLQLGDLNSCHHRAALLRMAVSLRKQGELGDAQDYCKEATKLSLISGDQATYTRSIRVMGDIYRNKMDMDRAFRQYEQAMGTSASLGDRMAQMEAMDGAARCLETLRLQNKICNCRPLEFNTRLLEVASSIGAKFLVRKIRCRLALIYRALGDEDQYNTHFRLANQTDAALGLNCGACGELLGLRPENLEALPCAHILHARCAYEILRRREKNAPRSCPACNKLISSRTHFCGSVPVESESTDRCVTAASTFNTNSLSVDGLLGINSDILLPSAAFCYVKNPALDTENSALLSPKVIYHSNLSLASLSMRASSLTIDSGQNVTSSV”: “failed”. The same measure for “MSWLFSTLVFFLTLLTAGIALYLITARRYQSSNSVANSYDQWTEDGILEFYWGEHIHLGHYGSPPQRKDFLVAKSDFVHEMVRWGGLDKLPPGTTLLDVGCGIGGSSRILARDYGFAVTGITISPQQVQRAQELTPQELNAQFLVDDAMALSFPDNSFDVVWSIEAGPHMPDKAIFAKELMRVLKPGGIMVLADWNQRDDRQKPLNFWEKPVMQQLLDQWSHPAFSSIEGFSELLAATGLVEGEVITADWTKQTLPSWLDSIWQGIVRPEGLVRFGLSGFIKSLREVPTLLLMRLAFGTGLCRFGMFRALRADTVRSSAEQTSAIKVAQK”: “failed”; for “MSWYRRTKLVFDSLRRNINPKILPRSHVTSRINNPIGSSNPSAKFSSISSREVGLRSWTSLGRNTNRIAYNPFLSQPKRYYYVDRYQVRHFKPRGPGRWFQNPRTVFTVVLVGSVGLITLIVGNTETIPYTKRTHFILLSKPMEKLLGETQFEQIKKTYQGKILPATHPESIRVRLIAKEVIDALQRGLSNERVWSDLGYASTESSLGGGSDKGVKEMEMAMSGEDTMTDMKWSKEDQVLDDQWIQKSRKKDSKAHAATSHLEGISWEVLVVNEPIVNAFCLPAGKIVVFTGLLNHFKSDAEVATVIGHEVGHAVARHVAEGITKNLWFAILQLVLYQFVMPDLVNTMSALFLRLPFSRKMEIEADYIGLLLLASAGYDPRVAPTVYEKLGKLGGDALGDYLSTHPSGKKRSKLLAQANVMEEALMIYREVQAGRTGVEGFL”: “failed”. Consider “MSYGLIIVLMIILGIGLWHTKKYHRAVVNQVAHVWITKNAFEHTALGMAIVSPDCRFLKVNRAYGEITGYTRPELLKMAVKELTHPEDQEKDTPYLQEVFAGNIHSFTTVKRYIHKNGSTIWVRSTISAVRTERGNLEHHHHHH”, for which the protein production entry was “not failed”. As to “MSYGLIIVLMIILGIGLWHTKKYHRAVVNQVAHVWITKNAFEHTALGMAIVSPDCRFLKVNRAYGEITGYTRPELLKMAVKELTHPEDQEKDTPYLQEVFAGNIHSFTTVKRYIHKNGSTIWVRSTISAVRTERGNLKYFVLEHHHHHH”, the protein production entry is recorded as “failed”.

Consider “MSYNNSYDVIILAGGLSKRFGADKCCFEVNSKTMLDRLLEQFDNPIVVSRSPRRIKKGILVIEKGEYEGPVKGVREGLKYVRRDRVFITGCDFPFLIKNLVDYVCSKPYDIVIPFDHRPQPLLACYSTELLNKNIDKINGLVELIELSSSVYFIGTEELLKIDPFLYSLININSIIDLIYRPIRIKTKSNFILRLEHHHHHH”, for which the protein production result is on record as “failed”.

Take “MTAANSERYALRLLGPFELTAPGGRRVEITSKKGIAVVAMLALSRDGARSRGWLQDRLWGSRRKAEAAGSLRRELSNLRKLLNADGAELLLSDRDRVRLRTDLIDIDLFVARSGRANGEFLEGLDISSERGFGEWLREQRDALVPPAQDVVVSAVTAGAGTLPTHIVDISTPPVGFAGRPAIAVLPFANATGDETLDYVAEGIGEELIVGLSRIRWLPVISRNSSFSFTESDDRKLIGQRLGAQYLVEGRLYRAYDSYGVSASLAEAITGYSLWSRRFTLQSPAAHDELVQFVNELVAQLESRIEHAEQIRIRGKRQDKLGVCDLIWRGRWHLNRLTRADSEMAQKLFAEALALDPDSPEALIQATAALAWSIWAGRQPQDQIQRMRKLSQQAMLADPDDGRGFMLAGIAEMWLRHPLEAKNLLRQAITLTPSLALAHAQLGGCFNLAGEPDRAIVQLKTAMRLSSNDPNIFYSLGELALAYTMLGQWPEAIEHATLALARRPAYWYAHVLKINALARIGQLDAARIACDELLAIKPNFSKRFLDWLPFVDRTWVDHFVQGLKMVPGRPSDWPERETHETAA”: the protein production result is “failed”.

As for “MTADKISPDMLRFERILAAPAATVWQYLVDPELRARWFMSGPTDLQVGGAFGLTMDHDRLSDEVVPTPDRYKPYVGHRWHERITRYEPPHLLAFTWEDGKAGEVTFALTEIDSGTTRLVLTHTGLRGSEDALNFGGGWHAHLAVLEKRIAGISIPDFWALHAVAEREMEIALVSEA”, the protein production entry is on record as “failed”. As for “MTAENSATPDYRRNVGAVADALLAHPGPIVVLSHENPDGDALGSVLGLSRALRTLGKTVLAPMTVPHYLSFLPQPGELTAPLESWPQGALAAVLDVDNNDPVRVAGADLTQFDGPVVNVDHHGTNLRRADAGVVDPSKPAAAMMVADVIDALGAPWSEAVATPLMLGLNTDTGNFAFDSVSAETFECAARLRAHGARIGWLNDQMRQNPQSYYLLLREVLGKLEFLHGGRVVQTRVDEEMLARAGATWEQVENYVSMLRNAEGAQLAVMAKDYGDRVKFSLRSRGPVSAQNIAVALGGGGHVPAAGATVISSYAEARARLDAAIEAELARVDAQATAE”, the protein production result is reported as “failed”. As to “MTAHKQPEANETESLLEQVQALESEVRGVVKTQLQLAGMETRRAGESFVRMVAFAVLAACLAFTAWAVLVTAAVIAIVNSSVMSLTTALVIVAVAHLAAAFYIVRYIKRRSRDLLFAETSSSL”, the protein production result is on record as “failed”.

With “MTAHPPRPELQIDIVSDVVCPWCIVGFRQLDQALAATGVLARLRWHPFELNPQMGPEGQNLREHIMEKYGSTPEQSAEARARLTAIGAELGFTFNFTDDSRIVNTFAAHQLLDWAEGQGRQHPLKQALFAAYFTDGRDVSDLSVLLDAVEAAGLDREAAQTALTSGAHQAPVREKQKFWAQHGISGVPSMVFGGKYLLTGAQGADTYAQVIQRCLAEAA”, the protein production entry is “not failed”.

Regarding “MTALHDLPGTRLLALFARRELSPGEYYEHLLAHIQRWEPHLNALYRFDPQRVREQAAAATERWRKGQPKGPLDGLPVTIKELIATAGEPIPLGSAATALQPAPCDAPPAARLREAGAIVLAKTTVPDFGMLSSGLSSFHGVTRNPWNLANNTGGSSSGAAAAATAGYGPLHLGTDIGGSVRLPAGWCGLVGFKPSLGRIPIDPYYTGRCAGPMTRCMDDCLLLMRYLAQPDARDATSLPPEVLDWSAEPLSVRGLRVGLQLDPGCGLQPDAEIRAAIEAAARLFEEHGAQLRIVEPLMDRSLLDGLNDFWRARLWSELLLLDETRRARVLPYVHAWAEGGARVSGVDAVRGFNQTFEMRRRAARLFGEIDLLLTPTNQVEAFPADWASPLNDPQRPFEHIVFTVPWNMGEQPALSINCGFTAAGMPIGLQLVAPRFADTWLLRIGKTYEGWRGPIHGWP”, the protein production entry was “failed”. With “MTAMMTILGPVLMGAAFGFLLQRGKVTNCNVIENQFRLRDFTVLKVMGTAIVVGGIGVLLLVDTGNTKYYVKDANMLAIALGAALFGIGMVVYGYCPGTALGAIATGSIHALVGALGMVAGAILYALSFDWLKAHVLNVWALGKVRLPDVTNIPDIIWFAALAVGAGLFFWWIESVEAEQKRM” the entry was “failed”; with “MTAPEETAPVSVRKPSKPDLWKDSLGRTATRALQILLILTLTVVAVFGLLQIRLLVIPVLIALILAAAIGPFVNMLRRRGWRGGLATGVAFLGLLIVLGGVITVIVMSVRSQWDELISQAAAGLDELESFLLTGPFPIDREQLNQAREAVVEFAQSSQVRSGAVTGLSVVTEFLAGASLVVVILFFFLKDGAKIWEFFLRPFKGRREAKLRRVGKRTMEVLGGYVRGTAIVALVDTVAIGAALLIMQVPLAIPLAIIVFIGAFIPLVGATVAGILAALVALVANGPIVALIVIIVVIAVNQLEGDLLQPVVMGKSLELHALVILMALTAGTILAGIIGAVLAVPIAAVTWAIIQVWTAEDPDLEPMNPELPPANSQPT”, “failed”; with “MTAPGSMPLTVIGGFLGAGKTTLLNYLLKVQHSERVLVMVNDFGSINIDAELLDQGRHDRPGVVRLQNGCVCCSIGGDLMQAFLQVMSMPDRPDRIIVEASGVADPTRIAQIGRVSGGLSDEGVITLVDASAVRTLAADKYVGDIVRQQILSADIVLLNKLDLSSDAEIVETRAWLRDLAPRTRVVSCIHGEVDAVSVLGIGAGKVAPDAAGGPVDVPVPDLRRASTRHADTFHSSTLATAHRFDRRRIEYALDALPQTVLRGKGFVELEGEATPALLQLCGSRWTLDPVSTPAPPAGTHLVFIATGGRGVPRFDAPSHFEQALASRDAASADTSNLEHHHHHH”, “not failed”. With “MTAPKVFVSHASEDKARFVVDFARRLRENGVDAWLDQWEMKPGDSLVDKIFEEGLREARAVVIVLSATSVRKPWVREELNASVVNRISRGTKLIPVVIDDCDVPEALRSTVLEHHHHHH” the entry was “failed”. In the case of “MTAPKVFVSHASEDKARFVVDFARRLRENGVDAWLDQWEMKPGDSLVDKIFEEGLREARAVVIVLSATSVRKPWVREELNASVVNRISRGTKLIPVVIDDCDVPEALRSTVWQKIDNLDDYGESLQRILSVIFDVTDKPALGAPPARFAGPAPLIAGLSRVDDLVIRVIARRQIDEGAGLVEWDRLKAEPILRDVPQQELLDSLEILKRHDFIRVREVIGALHVVLTDLGFLKFAEAYVDDYQGTVNQIAALLVNENVRQNRELAARVNKPVAFIDFVLNLMESNGYIKVSKYIGGQSHVREVSASLRRALQSA”, the protein production entry is on record as “failed”.
